Experimental data as given in the supplement of paper PMC7125110.
± gives the standard error. Variants at the floor of the assay were thinned out.

B1: glmS ribozyme (parent)
chain: AUAAAAGCGCCAGAACUACAGAAAUGUAGUUGACGAGGAGGAGGUUUAUCGAAUUUUCGGCGGAUGCCUCCAAA

What was measured:
Conditions in all cases: with glucosamine-6-phosphate
glucosamine-6-phosphate [1] = variants of: B1; assay: self-cleavage kobs at 160 uM GlcN6P; higher = faster cleavage; RNA array
Summary of the method: (§1)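 Barcoded ribozyme variants, transcribed in situ by E. coli RNA polymerase on sequenced MiSeq chips, were followed via a hybridised Cy3 probe at 37 °C. Glucosamine-6-phosphate ranged from 40 μM to 10 mM in HEPES/KCl/Mg(OAc)2 buffer. kobs came from decay fits to per-tile medians, and kcat and KM from weighted Michaelis–Menten fits.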

glucosamine-6-phosphate [2] = variants of: B1; assay: self-cleavage kobs at 640 uM GlcN6P; higher = faster cleavage; RNA array
Summary of the method: as §1

glucosamine-6-phosphate [3] = variants of: B1; assay: self-cleavage kobs at 2500 uM GlcN6P; higher = faster cleavage; RNA array
Summary of the method: as §1

glucosamine-6-phosphate [4] = variants of: B1; assay: self-cleavage kobs at 10000 uM GlcN6P; higher = faster cleavage; RNA array
Summary of the method: as §1

Variant	self-cleavage kobs at 160 uM GlcN6P (glucosamine-6-phosphate [1]) [s⁻¹]	self-cleavage kobs at 640 uM GlcN6P (glucosamine-6-phosphate [2]) [s⁻¹]	self-cleavage kobs at 2500 uM GlcN6P (glucosamine-6-phosphate [3]) [s⁻¹]	self-cleavage kobs at 10000 uM GlcN6P (glucosamine-6-phosphate [4]) [s⁻¹]
U57G U69G	8.11e-05 ± 1.7e-05	0.000113 ± 2.8e-05	4.87e-05 ± 1.6e-05	
U47G U54C	0.000851 ± 0.00032	0.0026 ± 0.00053	0.00468 ± 0.00094	0.0139 ± 0.0032
G37C C71G	< 1e-05			< 1e-05
A42C G51U A53C C71G	< 1e-05			
A14U U31A U47A	0.000611 ± 0.00016	0.00172 ± 0.00055		
G32U G60C	< 1e-05	< 1e-05	< 1e-05	
G59C G62A	< 1e-05	< 1e-05	< 1e-05	
C10G G38U A42C	< 1e-05		< 1e-05	
C50U G51C	< 1e-05	< 1e-05	< 1e-05	
A12U G41U U45A	0.00011 ± 2.8e-05	0.000308 ± 5.9e-05	0.000989 ± 0.00025	
A6U C10G C68U	< 1e-05			
G13U A14U C58A C67U	5.09e-05 ± 1.8e-05	0.000194 ± 4.3e-05	0.000334 ± 7.5e-05	
A42C C50U	< 1e-05	< 1e-05	< 1e-05	< 1e-05
G51U A52U U65G	< 1e-05	< 1e-05	< 1e-05	
G9U A48U C67G	< 1e-05	< 1e-05	< 1e-05	
A12G G40A C61U	< 1e-05			
C8A C50U U55C	< 1e-05	< 1e-05		
U46G G60C A64U	< 1e-05		< 1e-05	< 1e-05
U45G G51C A64C	< 1e-05	< 1e-05		
C10U A42C G63A	< 1e-05	< 1e-05	< 1e-05	
C8G G38A C58G C67G	0.000186 ± 5e-05	0.000538 ± 0.00013	0.000435 ± 0.00014	
A14C U30G A36U A53G	< 1e-05	< 1e-05	< 1e-05	
C34G A64U C67U	< 1e-05	< 1e-05		
C16A A33G A64G C71G	8.57e-05 ± 3.4e-05		6.35e-05 ± 2.8e-05	
G9C G41A	< 1e-05		< 1e-05	< 1e-05

Variant	self-cleavage kobs at 160 uM GlcN6P (glucosamine-6-phosphate [1]) [s⁻¹]	self-cleavage kobs at 640 uM GlcN6P (glucosamine-6-phosphate [2]) [s⁻¹]	self-cleavage kobs at 2500 uM GlcN6P (glucosamine-6-phosphate [3]) [s⁻¹]	self-cleavage kobs at 10000 uM GlcN6P (glucosamine-6-phosphate [4]) [s⁻¹]
A14U U30C G43A	< 1e-05	< 1e-05	< 1e-05	
G9A G29A A48C C58U	< 1e-05			
C8G C11G C16G C34A	< 1e-05		< 1e-05	
U30G G51U	< 1e-05			< 1e-05
G40C A42G A53C	5.62e-05 ± 1.9e-05	0.00018 ± 6.6e-05	0.000564 ± 0.00013	
C34U U47G	< 1e-05	< 1e-05		
A14U U31G C67A	7.69e-05 ± 2.3e-05	0.000354 ± 7.7e-05	0.000746 ± 0.00014	
C10U C11G A14G G43C A53C	< 1e-05	< 1e-05	< 1e-05	
G7C U31G	< 1e-05		< 1e-05	< 1e-05
C10A A52U C68A	7.21e-05 ± 2.5e-05			
A12C G43U A53C	< 1e-05			
C34G G40U G62C	< 1e-05			
A14C G63C U69G	7.07e-05 ± 2.1e-05	6.64e-05 ± 2.3e-05	4.71e-05 ± 1.8e-05	
C8A A15U U47C U55A G63C U65G	< 1e-05			
A14G G32A G38U	< 1e-05		< 1e-05	< 1e-05
A33G A53C C71U	< 1e-05			
G38U U56C U65A	< 1e-05		< 1e-05	< 1e-05
G7A U31C	< 1e-05	< 1e-05		
C10A G40A C71A	< 1e-05	< 1e-05		
G32U U54G	7.28e-05 ± 2.7e-05	0.000164 ± 5.1e-05	0.000272 ± 6.1e-05	0.000903 ± 0.00012
C10G G37C A48U C61A U69C	< 1e-05		< 1e-05	
C34U U49G A52U	< 1e-05		< 1e-05	< 1e-05
A6C G37U C50U G60C	< 1e-05	< 1e-05		
C16U G43U U57C	< 1e-05	< 1e-05	< 1e-05	
A1U U2A G63A	< 1e-05			

Variant	self-cleavage kobs at 160 uM GlcN6P (glucosamine-6-phosphate [1]) [s⁻¹]	self-cleavage kobs at 640 uM GlcN6P (glucosamine-6-phosphate [2]) [s⁻¹]	self-cleavage kobs at 2500 uM GlcN6P (glucosamine-6-phosphate [3]) [s⁻¹]	self-cleavage kobs at 10000 uM GlcN6P (glucosamine-6-phosphate [4]) [s⁻¹]
G44A U56A C70U	< 1e-05	< 1e-05		
G43U U47G U65C	< 1e-05		< 1e-05	
G29C A33C C61G C68U	< 1e-05	< 1e-05		< 1e-05
G13U U31C A33U G41A G43C	< 1e-05			
A14G G29U A52C C68A	0.000918 ± 0.00046	0.000113 ± 4.7e-05		
A36U C61G C70G	6.28e-05 ± 2.3e-05	9.55e-05 ± 2.6e-05		
G35C U49G	< 1e-05	< 1e-05	< 1e-05	
A15U C34U C50G	0.000153 ± 3.2e-05		0.000132 ± 3.4e-05	
U45G U57A G59A G62U	< 1e-05		< 1e-05	< 1e-05
A12G U47A C70U	5.89e-05 ± 2.2e-05	0.000192 ± 3e-05	0.000394 ± 9.5e-05	
A39G G41C U46G A64U	< 1e-05			
G40U C61G	< 1e-05	< 1e-05		< 1e-05
A6G G40C C50G	< 1e-05		< 1e-05	
G13A A33C U55A	< 1e-05	< 1e-05	< 1e-05	
U46C A53G U54C	0.000138 ± 2.9e-05	0.000673 ± 0.00011	0.00116 ± 0.00021	
C10U A33U G62U C71A	< 1e-05	< 1e-05	< 1e-05	< 1e-05
G29C G44A G60A A64G	< 1e-05	< 1e-05	< 1e-05	
C11A C58U C68A	7.67e-05 ± 3.2e-05		7.25e-05 ± 2.7e-05	5.61e-05 ± 1.5e-05
G44C C58A	< 1e-05	< 1e-05	< 1e-05	< 1e-05
U31C A64U U65A	< 1e-05	< 1e-05		
C8G G32U C58U	< 1e-05	< 1e-05		
G40U U49C U65G	< 1e-05		< 1e-05	
G7C G41C	< 1e-05	< 1e-05		< 1e-05
A15G A33C C58G	< 1e-05	< 1e-05		
A14G A15G G35U	< 1e-05	< 1e-05	< 1e-05	

Variant	self-cleavage kobs at 160 uM GlcN6P (glucosamine-6-phosphate [1]) [s⁻¹]	self-cleavage kobs at 640 uM GlcN6P (glucosamine-6-phosphate [2]) [s⁻¹]	self-cleavage kobs at 2500 uM GlcN6P (glucosamine-6-phosphate [3]) [s⁻¹]	self-cleavage kobs at 10000 uM GlcN6P (glucosamine-6-phosphate [4]) [s⁻¹]
A6G A15C U45A G59A	< 1e-05	< 1e-05	< 1e-05	
U30A A48U G62A	< 1e-05	< 1e-05	< 1e-05	
G51U A64U	< 1e-05	< 1e-05	< 1e-05	< 1e-05
C61A A64C	< 1e-05	< 1e-05	< 1e-05	< 1e-05
G7U G9A C16U G29A A53U G59A G66A U69G	< 1e-05	< 1e-05		
G32C G51C C68U	< 1e-05		< 1e-05	
C16U U55C	0.00153 ± 0.00037		0.00585 ± 0.0013	
G7C G13U A42G	< 1e-05			< 1e-05
C8G G44A	< 1e-05	< 1e-05	< 1e-05	< 1e-05
C50G A64C	7.93e-05 ± 2.1e-05		6.53e-05 ± 1.7e-05	2.52e-05 ± 1.2e-05
U47A G63U	< 1e-05	< 1e-05	< 1e-05	< 1e-05
C10G A14U A42U G60C C67G	< 1e-05			
C11A G38C	< 1e-05		< 1e-05	
A6G C16G G38A	< 1e-05	< 1e-05		
C34A G41C	< 1e-05	< 1e-05	< 1e-05	< 1e-05
G32A A42C	< 1e-05	< 1e-05	< 1e-05	< 1e-05
G7A U30G	< 1e-05		< 1e-05	
C16G U47A C50U A53G	< 1e-05			
G35C G37C U46C G63U	< 1e-05	< 1e-05	< 1e-05	
G9A U46C G63C	< 1e-05	< 1e-05		
G7C C50A	< 1e-05	< 1e-05		< 1e-05
A12U G13C U47G G60C	< 1e-05		< 1e-05	
G29A U47G A53G	6.62e-05 ± 2e-05	0.000173 ± 3.2e-05	0.000477 ± 0.00013	
C8G G40C U49C C61A	< 1e-05	< 1e-05	< 1e-05	
A39U G41A G62U	< 1e-05		< 1e-05	
